Experimental data from US20060084157A1.

Experiments:
[1] = target: Purified Fe-hydrogenase HydA of Scenedesmus obliquus (native enzyme) (Scenedesmus obliquus); assay: cell-based or functional assay
[2] = target: ferredoxin (source not stated, Table I)

Chain of Purified Fe-hydrogenase HydA of Scenedesmus obliquus (native enzyme) (Scenedesmus obliquus) (chain, as listed by the source): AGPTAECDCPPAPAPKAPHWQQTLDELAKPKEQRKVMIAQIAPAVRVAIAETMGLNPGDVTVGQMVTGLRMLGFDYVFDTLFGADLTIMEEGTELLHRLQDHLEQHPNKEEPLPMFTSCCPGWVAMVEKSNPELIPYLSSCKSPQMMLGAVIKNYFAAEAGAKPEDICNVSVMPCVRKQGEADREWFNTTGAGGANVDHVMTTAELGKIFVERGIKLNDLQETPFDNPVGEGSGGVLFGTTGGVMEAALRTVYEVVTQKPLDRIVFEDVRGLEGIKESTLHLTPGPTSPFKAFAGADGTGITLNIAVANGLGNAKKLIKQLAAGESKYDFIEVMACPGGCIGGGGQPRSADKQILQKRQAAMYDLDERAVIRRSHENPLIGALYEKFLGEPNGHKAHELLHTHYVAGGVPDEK

Row | Molecule | H2-evolving activity (in vitro, dithionite as reducing reagent) [1] | KM value (ferredoxin) [2]
1 | Ferredoxin (PetF) of Chlamydomonas reinhardtii (from UniProt P07839 33-126) | 390 U/mg protein | –
2 | Ferredoxin (PetF) of Scenedesmus obliquus | 420 U/mg protein | –
3 | Spinach ferredoxin (PetF) (from UniProt P00221 51-147) | 350 U/mg protein | –
4 | Fe-hydrogenase HydA of Chlamydomonas reinhardtii (native mature enzyme) (protein) AAPAAEAPLSHVQQALAELAKPKDDPTRKHVCVQVAPAVRVAIAETLGLAPGATTPKQLAEGLRRLGFDEVFDTLFGADLTIMEEGSELLHRLTEHLEAHPHSDEPLPMFTSCCPGWIAMLEKSYPDLIPYVSSCKSPQMMLAAMVKSYLAEKKGIAPKDMVMVSIMPCTRKQSEADRDWFCVDADPTLRQLDHVITTVELGNIFKERGINLAELPEGEWDNPMGVGSGAGVLFGTTGGVMEAALRTAYELFTGTPLPRLSLSEVRGMDGIKETNITMVPAPGSKFEELLKHRAAARAEAAAHGTPGPLAWDGGAGFTSEDGRGGITLRVAVANGLGNAKKLITKMQAGEAKYDFVEIMACPAGCVGGGGQPRSTDKAITQKRQAALYNLDEKSTLRRSHENPSIRELYDTYLGEPLGHKAHELLHTHYVAGGVEEKDEKK | – | 35 µM
